{"source": "patent US20160256527A1", "about": "(ONCOMED PHARMACEUTICALS, published 2016)", "target": "T1, membrane bound single chain human GITRL trimer (human, UniProt Q9UNG2 29-177)", "T1 construct": "Expressed on the surface of transiently transfected HEK-293 cells (co-transfected with GFP); also called single chain hGITRL trimer", "T1 sequence": "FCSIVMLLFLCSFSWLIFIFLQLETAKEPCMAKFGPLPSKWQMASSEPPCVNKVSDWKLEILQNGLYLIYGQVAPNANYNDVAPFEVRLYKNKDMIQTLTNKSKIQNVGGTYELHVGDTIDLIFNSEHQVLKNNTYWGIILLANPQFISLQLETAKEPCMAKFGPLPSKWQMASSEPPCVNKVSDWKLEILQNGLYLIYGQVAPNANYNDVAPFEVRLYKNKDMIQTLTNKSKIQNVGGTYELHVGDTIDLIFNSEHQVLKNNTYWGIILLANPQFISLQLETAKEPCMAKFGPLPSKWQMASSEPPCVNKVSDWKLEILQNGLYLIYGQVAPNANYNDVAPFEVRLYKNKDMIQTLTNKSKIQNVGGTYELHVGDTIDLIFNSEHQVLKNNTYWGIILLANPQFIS", "test": "flow cytometry, HEK-293 cells transfected with membrane bound single chain hGITRL trimer, PE anti-human Fc", "method": "FIG. 2. FACS analysis of a membrane bound single chain GITRL trimer and soluble GITR. HEK293 cells were transiently transfected with an expression vector encoding a membrane bound single chain human GITRL trimer and a second expression vector encoding green fluorescent protein (GFP). Transfected cells were incubated with soluble human GITR-Fc fusion protein and analyzed by flow cytometry. Positive binding is determined by observation of cells within the inset box of the FACS plot.\nTo test the ability of a single chain hGITRL trimer to bind human GITR, binding studies were conducted. Human HEK-293 cells were transiently co-transfected with expression vectors encoding (1) the membrane bound single chain hGITRL trimer construct described above and (2) green fluorescent protein (GFP) as a transfection marker. Twenty-four hours post-transfection, the cells were incubated with hGITR-Fc or a control fusion protein. The cells were stained with a PE-conjugated anti-human Fc secondary antibody and analyzed by flow cytometry.", "data": [{"binder": "soluble human GITR-Fc fusion protein (Fc fusion, UniProt Q9Y5U5 26-162, looked up, also called hGITR-Fc; not shown: Fc region) QRPTGGPGCGPGRLLLGTGTDARCCRVHTTRCCRDYPGEECCSEWDCMCVQPEFHCGDPCCTTCRHHPCPPGQGVQSQGKFSFGFQCIDCASGTFSGGHEGHCKPWTDCTQFGFLTVFPGNKTHNAVCVPGSPPAEP", "values": [{"measurement": "binding result", "value": "binds"}]}]}
